The text below walks through data of patent publication US20100120124A1 (CONSEJO SUPERIOR DE INVESTIGACIONES CIENTIFICAS, published 2010).

The target of assay [1] is T1, α-amylase (pig pancreatic enzyme α-amylase, Sigma) (pig, UniProt P00690 16-511).
T1 sequence: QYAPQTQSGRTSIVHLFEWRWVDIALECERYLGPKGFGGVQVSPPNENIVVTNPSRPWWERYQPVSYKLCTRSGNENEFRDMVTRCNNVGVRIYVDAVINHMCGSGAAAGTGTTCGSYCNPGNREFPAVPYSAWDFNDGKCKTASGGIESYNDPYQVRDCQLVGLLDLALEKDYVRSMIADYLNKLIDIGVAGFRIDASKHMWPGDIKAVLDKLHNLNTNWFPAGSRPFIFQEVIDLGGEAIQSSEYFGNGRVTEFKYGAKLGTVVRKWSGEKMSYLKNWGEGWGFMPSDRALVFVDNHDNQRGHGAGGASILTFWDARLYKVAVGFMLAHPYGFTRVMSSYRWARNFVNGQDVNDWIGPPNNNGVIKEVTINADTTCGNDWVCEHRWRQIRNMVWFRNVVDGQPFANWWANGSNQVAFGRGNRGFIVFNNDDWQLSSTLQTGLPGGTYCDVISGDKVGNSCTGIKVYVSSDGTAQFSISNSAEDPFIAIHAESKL
The assay is described as follows: ELISA, supernatant of EPEC culture on coated antigen, anti-E-tag-POD. For orientation: ELISA stands for enzyme-linked immunosorbent assay.

In assay [2] the target is T2, bovine seroalbumin (BSA, Roche) (bovine, UniProt P02769 25-607).
T2 construct: also called bovine albumin
Described as above.

T2 sequence (P02769 25-607 limits assumed): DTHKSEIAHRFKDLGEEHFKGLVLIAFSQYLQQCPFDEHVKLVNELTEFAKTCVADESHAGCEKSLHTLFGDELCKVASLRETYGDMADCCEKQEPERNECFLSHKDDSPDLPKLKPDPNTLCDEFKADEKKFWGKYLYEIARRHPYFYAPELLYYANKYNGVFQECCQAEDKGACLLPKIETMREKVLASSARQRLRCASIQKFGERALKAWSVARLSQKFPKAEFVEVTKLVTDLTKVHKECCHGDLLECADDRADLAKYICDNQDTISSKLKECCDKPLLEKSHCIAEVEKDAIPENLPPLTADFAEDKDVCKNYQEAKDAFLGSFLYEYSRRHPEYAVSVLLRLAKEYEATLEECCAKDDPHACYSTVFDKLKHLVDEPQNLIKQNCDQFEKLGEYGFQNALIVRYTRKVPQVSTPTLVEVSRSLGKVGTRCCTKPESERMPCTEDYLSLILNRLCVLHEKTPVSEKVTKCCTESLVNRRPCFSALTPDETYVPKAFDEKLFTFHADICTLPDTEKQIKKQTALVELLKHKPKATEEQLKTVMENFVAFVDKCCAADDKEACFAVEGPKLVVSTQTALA

B1: fusion antibody EspF-Vamy (EspF20 signal fused to camel VHH anti-amylase with C-terminal 6xhis and E-tag) (VHH)
VHH: QVQLVESWGGSVQAGGSLRLSCTAPGFTSNSCRMDWYRQAAGKQREWVSSISTDGRTSYADSVKGRFTISKDKAKDTVYLQMNSLKPEDTAIYYCAVRTNGYRPQSHEFRYWGPGTQVTVSS
notes: also called EspF20-Vamy; product of plasmid pEspFVamy
Regarding B1, the binding result in assay [1] is “binds”; in assay [2], “no binding”.

B2: fusion antibody EspF-Vgfp (EspF20 signal fused to camel VHH anti-GFP with C-terminal 6xhis and E-tag) (VHH)
VHH: QVQLVESGGALVQPGGSLRLSCAASGFPVNRYSMRWYRQAPGKEREWVAGMSSAGDRSSYEDSVKGRFTISRDDARNTVYLQMNSLKPEDTAVYYCNVNVGFEYWGQGTQVTVSS
notes: also called product of plasmid pEspFVgfp
As to B2, the binding result in assay [1] and in assay [2] was “no binding” each time.
